According to US20090203538A1 (INSTITUTE FOR ANTIBODIES, published 2009):
Numbering of substitutions follows the chain as printed.

T1: ALCAM (Activated leukocyte cell adhesion molecule) (Homo sapiens (Human), UniProt Q13740 28-583)
T1 construct: Native protein on cancer cell lines; also called CD166 antigen; CD166
T1 sequence: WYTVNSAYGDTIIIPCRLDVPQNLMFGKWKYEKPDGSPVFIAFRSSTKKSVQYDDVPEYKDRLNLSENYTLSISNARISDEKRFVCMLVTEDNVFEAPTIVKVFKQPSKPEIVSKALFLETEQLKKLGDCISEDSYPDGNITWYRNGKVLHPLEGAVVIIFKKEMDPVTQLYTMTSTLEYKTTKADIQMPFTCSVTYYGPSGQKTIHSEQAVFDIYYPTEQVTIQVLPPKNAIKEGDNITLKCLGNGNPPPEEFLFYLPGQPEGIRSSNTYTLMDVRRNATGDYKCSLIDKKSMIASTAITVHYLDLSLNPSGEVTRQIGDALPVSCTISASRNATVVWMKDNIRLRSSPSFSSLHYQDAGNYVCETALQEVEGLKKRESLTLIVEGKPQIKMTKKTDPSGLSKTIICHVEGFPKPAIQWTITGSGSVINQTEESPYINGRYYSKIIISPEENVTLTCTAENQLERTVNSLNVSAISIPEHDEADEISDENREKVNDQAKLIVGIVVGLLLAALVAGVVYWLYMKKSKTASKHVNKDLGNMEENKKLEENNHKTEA

B1: 015-044 antibody (antibody, V domains shown)
VH: QVQLQESGPGLVKPSETLSLTCTVSGGSISSSSYYWGWIRQPPGKGLEWIGSIYYSGSTYYNPSLKSRVTISVDTSKNQFSLKLSSVTAADTAVYYCAMRAYGSGSYDYWGQGTLVTVSR
VL: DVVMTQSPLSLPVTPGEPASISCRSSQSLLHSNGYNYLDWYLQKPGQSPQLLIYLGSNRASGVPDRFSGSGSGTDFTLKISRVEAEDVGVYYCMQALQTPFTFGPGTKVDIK
notes: Clone of the scFv-CL-cp3 phage library
B2: 015-102 antibody (antibody, V domains shown)
VH: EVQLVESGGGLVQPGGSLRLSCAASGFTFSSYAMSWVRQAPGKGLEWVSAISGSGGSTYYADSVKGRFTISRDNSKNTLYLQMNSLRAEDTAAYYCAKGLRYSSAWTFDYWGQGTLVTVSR
VL: QSALTQPASVSGSPGQSITISCTGTSSDVGGYNYVSWYQQHPGKAPKLMIYDVSNRPSGVSNRFSGSKSGNTASLTISGLQAEDEADYYCSSYTSSSTPVVFGGGTKLTVLG
notes: as for B1
B3: 015-136 antibody (antibody, V domains shown)
VH: QVQLVQSGSELKKPGASVKVSCKASGYIFTRYGINWVRQAPGQGLEWMGWINTNTGNPTYAQGFTGRVVFSLDTSVSTAYLQISSLKAEDTAMYYCAISSGFGYYFDYWGQGTLVTVSR
VL: DIQMTQSPSSVSASVGDRVTITCRASQSISRWLAWYQQKPGKAPKFLIYAGSSLQSGVPSRFSGSGSGTDFTLTISSLQPEDFATYYCQQTNSFPLTFGGGTKVEIK
notes: as for B1
B4: 015-143 antibody (antibody, V domains shown)
VH: QVQLVQSGAEVKKPGASVKVSCKASGYTFTSYGISWVRQAPGQGLEWMGWISAYNGNTNYAQKLQGRVTMTTDTSTSTAYMELRSLRSDDTAVYYCARAFRDWGSLRDYWGQGTLVTVSR
VL: QSVLTQPPSVSAAPGQKVTISCSGSSSNIGNNYVSWYQQLPGTAPKLLIYDNNKRPSGIPDRFSGSKSGTSATLGITGLQTGDEADYYCGTWDSSLSAVVFGGGTKLTVLG
notes: as for B1
B5: 015-209 antibody (antibody, V domains shown)
VH: EVQLVESGAEVKKPGESLKISCKGSGYSFTSYWIGWVRQMPGKGLEWMGIIYPGDSDTRYSPSFQGQVTISADKSISTAYLQWSSLKASDTAMYYCARLAVGAYQYYFDYWGQGTLVTVSR
VL: QTVVTQEPSFSVSPGGTVTLTCGLSSGSVSTSYYPSWYQQTPGQAPRTLIYSTNTRSSGVPDRFSGSILGNKAALTITGAQADDESDYYCVLYMGSGISVFGGGTKLTVLG
notes: as for B1
B6: 086-061 antibody (antibody, V domains shown)
VH: QVQLVQSGAEVKKPGESLKISCKGSGYSFTSYWIGWVRQMPGKGLEWMGIIYPGDSDTRYSPSFQGQVTISADKSISTAYLQWSSLKASDTAMYYCARHNSNYYYYYMDVWGKGTLVTVSR
VL: B5 VL
notes: as for B1
B7: 039-016 antibody (antibody, V domains shown)
VH: EVQLVESGGNLVQPGGSLRLSCAASGFTFSRYWMTWVRQAPGKGLEWISSVSSSGSTIYYADSVKGRFTISRDNAKNSLYLQMNSLRVEDTAVYYCARDYWPGWYFDLWGRGTLVTVSR
VL: QAVLTQPSSLSASPGASASLTCTFRSDISVGSYRIYWYQQKPGSPPQFLLKYTSDSDKQQGSGVPSRFSGSKDVSANAGILLISGLQSEDEADYYCMTWHNTASVFGGGTKLAVLG
notes: as for B1
B8: 075-110 antibody (antibody, V domains shown)
VH: B7 VH with N10G, A23S, R31N, V51I
VL: B7 VL
notes: as for B1
B9: 053-216 antibody (antibody, V domains shown)
VH: EVQLVESGGGLIRPGGSLRLSCTASGFTFSSYTMNWVRQAPGKGLEWLSYISGGSGTKFYADSVKGRFTVSRDNAKNSLYLEMNSLRPEDTAVYYCALVSYSSPGFDYWGQGTLVTVSS
VL: SYELTQPPSVSVSPGQTASITCSGDKLGDKYVYWYQQKPGQSPILLIFQDSERPSGIPERFSGSNSGNTATLTISGTQAMDEADYYCQAWDSSAAVFGGGTKLTVLG
notes: as for B1
B10: 075-024 antibody (antibody, V domains shown)
VH: QVQLVQSGAEVKKPGASVKVSCKASGYTFTSYGISWVRQAPGQGLEWMGWISAYNGNTNYAQKLQGRVTMTTDTSTSTAYMELRSLRSDDTAVYYCARGGAFDIWGQGTTVTVSR
VL: QSVLTQPPSVSGAPGQRVTISCTGSSSNIGAGYHVYWYQQLPGKAPKLLIYVNSNRPSGVPDRFSGSKSGTSASLAITGLQADDEADYYCQSYDSSLSGRVFGGGTKLTVLG
notes: as for B1
B11: 086-032 antibody (antibody, V domains shown)
VH: QVQLVQSGSEVKKPGASVKVSCKTSGYIFTDYYMHWVRQAPGKGLEWMGWINPNSGGTYYAQKFHGRVTMTSDTSISTAYMELSSLRSDDTAIYYCAREDYDILTGYYPASGHGDYWGQGTLVTVSR
VL: QAVVTQEPSLTVSPGGTVTLTCASSTGAVTSGFLANWFQQKPGQTPRSLIYKTSNKHPWTPARFSGSLLGGKAALTLSGVQPEDEADYYCLLLSGGAWVFGGGTKLSVLG
notes: as for B1
B12: 086-035 antibody (antibody, V domains shown)
VH: QVQLVQSGAEVKKPGESLKISCEGSGYTFTSYWIGWVRQMPGKDLEWMGIIYPGDSDTRYSPSFQGQVTISVDKSISTAYLQWSSLKASDTAMYYCARHDVVDGYNTGMDVWGQGTTVTVSR
VL: B5 VL with S11T, Y51S, K72R, S99W
notes: as for B1
B13: 086-036 antibody (antibody, V domains shown)
VH: QVQLVQSGAEVKKPGESLKISCKGSGYSFTSYWIGWVRQMPGKGLEWMGIIYPGDSDARYSPSFQGQVTISADKSISTAYLQWSSLKASDTAMYYCARLTGSSYYDSSGYSSYGMDVWGQGTTVTVSR
VL: B5 VL with Y38F, K106Q
notes: as for B1
B14: 086-138 antibody (antibody, V domains shown)
VH: B11 VH with Y107F
VL: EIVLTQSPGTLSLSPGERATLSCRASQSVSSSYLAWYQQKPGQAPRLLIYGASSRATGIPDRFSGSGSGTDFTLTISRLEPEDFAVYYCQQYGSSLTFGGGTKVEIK
notes: as for B1
B15: 086-182 antibody (antibody, V domains shown)
VH: QVQLVQSGAEVKKPGESLKISCKGSGYSFTSYWIGWVRQMPGKGLEWMGIIYPGDSDTRYSPSFQGQVTISADKSISTAYLQWSSLKASDTAMYYCARHGMTSGYVAHNDYWGQGTLVTVSR
VL: B5 VL with S99W
notes: as for B1
B16: 029-143 antibody (antibody, V domains shown)
VH: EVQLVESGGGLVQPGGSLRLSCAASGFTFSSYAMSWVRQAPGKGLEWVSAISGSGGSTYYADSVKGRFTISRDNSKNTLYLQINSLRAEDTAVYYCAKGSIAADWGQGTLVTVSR
VL: SSELTQDPAVSVALGQTVRITCQGDSLRSYYASWYQQKPGQAPVLVIYGKNNRPSGIPDRFSGSSSGNTASLTITGAQAEDEADYYCNSRDSSGNVVFGGGTKLTVLG
notes: as for B1
B17: 045-134 antibody (antibody, V domains shown)
VH: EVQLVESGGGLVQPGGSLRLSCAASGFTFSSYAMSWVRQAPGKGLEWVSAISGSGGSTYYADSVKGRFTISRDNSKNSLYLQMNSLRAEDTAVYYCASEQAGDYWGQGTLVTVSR
VL: QSVLTQPPSASGTPGQRVTISCSGSSSNIGSNYVYWYQQLPGTAPKLLIYRNNQRPSGVPDRFAGSKSGTSATLGITGLQTGDEADYYCGTWDSSLSAGVFGGGTKLTVLG
notes: as for B1
B18: 062-101 antibody (antibody, V domains shown)
VH: QVQLVQSGAEVKKPGASVKVSCKASGYTFTSYYMHWVRQAPGQGLEWMGIINPSGGSTSYAQKFQGRVTMTRDTSTSTVYMELSSLRSEDTAVYYCARELSAATAFDIWGQGTMVTVSR
VL: ETTLTQSPFSVSASVGDRVTITCRASQYISRWLAWYQQRPGKAPKLLIYAAASLQSGVPSRFSGSGSGTDFTLTISSLQPEDFATYYCQQANSFPVTFGQGTRLEIK
notes: as for B1
B19: 062-109 antibody (antibody, V domains shown)
VH: QVQLVQSGAEVKKPGASVKVSCKASGYTFTSYGISWVRQAPGQGLEWMGWISAYNGNTNYAQKLQGRVTMTTDTSTSTAYMELRSLRSDDTAVYYCARVGYYYYYGMDVWGQGTTVTVSR
VL: QSALTQPASVSGSPGQSITISCTGTSSDVGSYNLVSWYQQHPGKAPKLMIYEGSKRPSGVSNRFSGSKSGNTASLTISGLQAEDEADYYCSSYTSSSTWVFGGGTKLTVLG
B20: 084-103 antibody (antibody, V domains shown)
VH: QVQLVQSGAEVKKPGSSVKVSCKASGGTFSSYAISWVRQAPGQGLEWMGWMNPNSGNTGYAQKFQGRVTMTRNTSISTAYMELSSLRSEDTAVYYCARDVGIGVFDYWGQGTLVTVSR
VL: SYVLTQPPSVSVAPGKTARITCGGNNIGSKSVHWYQQKPGQAPVLVIYYDSDRPSGIPERFSGSNSGNTATLTISRVEAGDEADYYCQVWDSSSDHVVFGGGTKLTVLG
notes: as for B1
B21: 029-067 antibody (antibody, V domains shown)
VH: QVQLQQSGAEVKKPGASVKVSCKASGYTFTTYYMHWVRQAPGQGLEWMGIINPSGENTNYAQKFQGRVTMTRDTSTTTVYMELSSLRSEDTAVYYCARSFIGTRGGGLDVWGQGTTVTVSR
VL: QSVLTQPPSVSGAPGQRVNISCAGSSSNIGAGYDVHWYQQIPGTAPKLLMYGNSNRPSGVPDRFSGSKSGASASLAITRLQAEDEADYYCQSYDSSLSGSRVFGTGTKVTVLG
notes: as for B1
B22: 083-131 antibody (antibody, V domains shown)
VH: EVQLVESGGGVVQPGRSLRLSCAASGFTFDDYAMHWVRQAPGKGLEWVSGISWNSGSIGYADSVKGRFTISRDNAKNSLYLQMNSLRAEDTAVYYCATEEWWRFDLWGRGTLVTVSR
VL: QSALTQPPSASGSPGQSVTISCTGTSSDVDDYNYVSWYQQHPGKAPKLMIYEVTKRPSGVPDRFSGSKSGNTASLTISGLQAEDEADYYCSSYVGSDNRVFGTGTKVTVPG
notes: as for B1

Key:
HER2 = target: T2, HER2 (Homo sapiens (Human), UniProt P04626 23-1255); assay: antigen assigned by the filing's classifying and identification method; details for this clone not given
T2 construct: Native protein on cancer cell lines; also called erbB-2; ErbB2

[1] = target: T1, ALCAM (Activated leukocyte cell …); assay: as above

| Binder | binding result (HER2) | binding result [1] |
| --- | --- | --- |
| B1 | binds | – |
| B2 | binds | – |
| B3 | binds | – |
| B4 | binds | – |
| B5 | binds | – |
| B6 | binds | – |
| B7 | binds | – |
| B8 | binds | – |
| B9 | binds | – |
| B10 | binds | – |
| B11 | binds | – |
| B12 | binds | – |
| B13 | binds | – |
| B14 | binds | – |
| B15 | binds | – |
| B16 | – | binds |
| B17 | – | binds |
| B18 | – | binds |
| B19 | – | binds |
| B20 | – | binds |
| B21 | – | binds |
| B22 | – | binds |
